Data as given in patent US12123876B2, “Antibody binding to HEG1 and use of the antibody for detection and treatment of mesothelioma” (Kanagawa Prefectural Hospital Organization, priority 2016, dated 2024).
“Also recorded” adds a separate entry of the source.

Assays:
[1] = test system: formalin-fixed tissue sections of cancers except mesothelioma; assay: Hybridoma screening by immunostaining of formalin-fixed tissue sections; conditions: hybridoma culture supernatant
[2] = test system: HEG1 protein (purified from ACC-MESO4 or recombinant soluble HEG1); assay: Western blot / dot blot reactivity of antibodies with HEG1 protein; format: binding, human
Experimental: A massive amount of ACC-MESO4 was cultured, and purification of an antigen from the cell lysate was performed. Cells from 240 10-cm dishes were solubilized with 50 mM Tris buffer (pH 8.0) containing 1% TRITON™ X-100 (detergent), 1% CHAPS, 1 mM EDTA, 50 mM NaCl, and protease inhibitor (Complete, Roche Life Science), and then centrifuged. The resulting supernatant was dialyzed with 20 mM acetate buffer (pH 5.0) at 4° C. for 18 hours to afford an acidic precipitate. The precipitate was extracted with 20 mM Tris buffer (pH 7.2) containing 0.1% TWEEN® 20 (polyethylene glycol sorbitan monolaurate, polyoxyethylenesorbitan monolaurate) and 150 mM NaCl and centrifuged, and the resulting supernatant was concentrated by using an Amicon Ultra-15, 100 kDa (Merck Millipore) and subjected to solution exchange with 20 mM Tris buffer (pH 8.0) containing 6 M guanidine hydrochloride. To the concentrated solution, tris(2-carboxyethyl)phosphine hydrochloride with a final concentration of 10 mM was added, and the resultant was heated at 60° C. for 30 minutes, and iodoacetamide with a final concentration of 40 mM was then added thereto, and reacted at room temperature for 3 hours. The reaction solution was subjected to gel filtration chromatography (SUPEROSE® 6 INCREASE (prepacked column) 10/300 GL (GE Healthcare)) in 20 mM Tris buffer (pH 8.0) containing 6 M guanidine hydrochloride and 0.05% TWEEN® 20 (polyethylene glycol sorbitan monolaurate, polyoxyethylenesorbitan monolaurate), and fractions positive for dot blot were collected. The sample was dialyzed with 25 mM phosphate buffer (pH 7.0) containing 4 M urea and 0.05% TWEEN® 20 (polyethylene glycol sorbitan monolaurate, polyoxyethylenesorbitan monolaurate) at room temperature overnight, and applied to a Mono Q 5/50 GL (GE Healthcare). The column was washed with 25 mM phosphate buffer (pH 7.0) containing 4 M urea and 0.05% TWEEN® 20 (polyethylene glycol sorbitan monolaurate, polyoxyethylenesorbitan monolaurate), and thereafter elution was performed with an NaCl salt concentration gradient of 0 to 1 M. Fractions strongly positive for dot blot were collected, and dialyzed with 25 mM phosphate buffer (pH 7.2) containing 150 mM NaCl and 0.05% TWEEN® 20 (polyethylene glycol sorbitan monolaurate, polyoxyethylenesorbitan monolaurate) at room temperature overnight, and applied to 1 mL of WGA-SEPHAROSE® (wheat germ agglutinin-crosslinked, beaded-form of agarose) (J-OIL MILLS, Inc.). After washing with buffer, elution was performed with 25 mM phosphate buffer (pH 7.2) containing 0.2 M N-acetylglucosamine, 150 mM NaCl, and 0.05% TWEEN® 20 (polyethylene glycol sorbitan monolaurate, polyoxyethylenesorbitan monolaurate), and the eluent was concentrated with a Centricon (YM-30) (Millipore). Gel filtration chromatography (SUPEROSE® 6 INCREASE (prepacked column) 10/300 GL (GE Healthcare)) was performed in 25 mM phosphate buffer (pH 7.2) containing 3 M GdnHCI and 0.5% CHAPS, and fractions strongly positive for dot blot were dialyzed with 20 mM NH4HCO3 containing 0.5% CHAPS at room temperature overnight to afford a purified antigen.
The dot blot was performed as follows. A PVDF membrane (Immobilon-P, Merck Millipore) was soaked in methanol, and then washed and impregnated with pure water. The hydrophilized PVDF membrane was placed on a filter paper containing water to avoid air inclusion, removed of excessive moisture, and soaked with 1 to 5 μL of the sample in dots fed by a micropipette. After the membrane was dried at room temperature overnight, the membrane was hydrophilized again with methanol and pure water, and blocked with 20 mM Tris buffer (pH 7.4) containing 5% skim milk, 0.1% TWEEN® 20 (polyethylene glycol sorbitan monolaurate, polyoxyethylenesorbitan monolaurate), and 150 mM NaCl (blocking buffer) at room temperature for 1 hour. […]

B1: SKM9-2 antibody: mouse monoclonal IgG1 kappa antibody binding glycosylated HEG1; heavy chain SEQ ID NO: 2, light chain SEQ ID NO: 4 (antibody, listed as Mus musculus)
heavy: MGWSSIILFLVATTTGVHSQVQLQQPGAELVRPGASVKLSCKASGFSFTTYWITWVKQRPGQGLEWIGMIHPSDSETRLSQTFKDKATLTVDKSSNTAYMQFSSPTSEDSAVYYCVRDFDVWGAGTTVTVSSAKTTPPSVYPLAPGSAAQTNSMVTLGCLVKGYFPEPVTVTWNSGSLSSGVHTFPAVLQSDLYTLSSSVTVPSSTWPSETVTCNVAHPASSTKVDKKIVPRDCGCKPCICTVPEVSSVFIFPPKPKDVLTITLTPKVTCVVVDISKDDPEVQFSWFVDDVEVHTAQTQPREEQFNSTFRSVSELPIMHQDWLNGKEFKCRVNSAAFPAPIEKTISKTKGRPKAPQVYTIPPPKEQMAKDKVSLTCMITDFFPEDITVEWQWNGQPAENYKNTQPIMDTDGSYFVYSKLNVQKSNWEAGNTFTCSVLHEGLHNHHTEKSLSHSPGK
light: MKLPVRLLVLMFWIPASISDVLMTQTPLSLPVSLGDQASISCRSSQNIVHNNGNTYLGWYLQKPGQSPKLLIFKVSNRFSGVPDRFSGSGSGTDFTLKISRVEAEDLGVYYCFQGSHIPRTFGGGTRLEIKRADAAPTVSIFPPSSEQLTSGGASVVCFLNNFYPKDINVKWKIDGSERQNGVLNSWTDQDSKDSTYSMSSTLTLTKDEYERHNSYTCEATHKTSTSPIVKSFNRNEC
- Reactivity with formalin-fixed tissue sections of cancers except mesothelioma [1]: almost non-reactive
- Recognition of purified antigen band at approximately 400 kDa ([2]; Western blotting, antigen purified from ACC-MESO4): recognized
- Reactivity with antigen after N-glycanase (PNGase F) treatment ([2]; dot blot): did not cause the antibody to lose the reactivity
- Reactivity with antigen after Proteinase K treatment ([2]; dot blot): caused the antibody to lose the reactivity
- Reactivity with antigen treated with neuraminidase ([2]; dot blot, HEG1 protein purified from ACC-MESO4, neuraminidase treatment): did not bind; also recorded: weakened
